Reference: article PMC9468151, “Identification of a binding site on soluble RANKL that can be targeted to inhibit soluble RANK-RANKL interactions and treat osteoporosis” (Nature Communications, 2022)
Numbering of substitutions follows the chain as printed. Names may count otherwise. “And” between values parts separate entries of the source, which are not always exact repeats. Identical values can stand only once.

B1: WT: wild type recombinant rat sRANKL (protein)
chain: KPEAQPFAHLTINAADIPSGSHKVSLSSWYHDRGWAKISNMTLSNGKLRVNQDGFYYLYANICFRHHETSGSVPADYLQLMVYVVKTSIKIPSSHNLMKGGSTKNWSGNSEFHFYSINVGGFFKLRAGEEISVQVSNPSLLDPDQDATYFGAFKVQDID
modifications: left off: His6, N-terminal, cleaved | SUMO, N-terminal, cleaved
notes: wild type recombinant rat sRANKL
B2: K283A (protein, UniProt Q9ESE2 69-318, looked up, variant K283A)
extracellular domain: LYFRAQMDPNRISEDSTRCFYRILRLRENTGLQDSTLESEDTEALPDSCRRMKQAFQGAVQRELQHIVGPQRFSGVPAMMEGSWLDVARRGKPEAQPFAHLTINAADIPSGSHKVSLSSWYHDRGWAKISNMTLSNGKLRVNQDGFYYLYANICFRHHETSGSVPADYLQLMVYVVKTSIKIPSSHNLMKGGSTKNWSGNSEFHFYSINVGGFFALRAGEEISVQVSNPSLLDPDQDATYFGAFKVQDID
modifications: extracellular domain
B3: E270A: single-point mutated rat sRANKL (protein)
chain: B1 chain with E111A
modifications: left off: His6, N-terminal, cleaved | SUMO, N-terminal, cleaved
notes: single-point mutated rat sRANKL
B4: D301A: single-point mutated rat sRANKL (protein)
chain: B1 chain with D142A
modifications: left off: His6, N-terminal, cleaved | SUMO, N-terminal, cleaved
notes: as for B3
B5: D303A: single-point mutated rat sRANKL (protein)
chain: B1 chain with D144A
modifications: left off: His6, N-terminal, cleaved | SUMO, N-terminal, cleaved
notes: as for B3
B6: K182A: single-point mutated rat sRANKL (protein)
chain: B1 chain with K23A
modifications: left off: His6, N-terminal, cleaved | SUMO, N-terminal, cleaved
notes: as for B3
B7: R224A: single-point mutated rat sRANKL (protein)
chain: B1 chain with R65A
modifications: left off: His6, N-terminal, cleaved | SUMO, N-terminal, cleaved
notes: as for B3
B8: H226A: single-point mutated rat sRANKL (protein, UniProt Q9ESE2 69-318, looked up, variant H226A)
extracellular domain: B2 extracellular domain with H158A, A215K
modifications: extracellular domain
notes: as for B3
B9: E227A: single-point mutated rat sRANKL (protein)
chain: B1 chain with E68A
modifications: left off: His6, N-terminal, cleaved | SUMO, N-terminal, cleaved
notes: as for B3
B10: Q238A: single-point mutated rat sRANKL (protein, UniProt Q9ESE2 69-318, looked up, variant Q238A)
extracellular domain: B2 extracellular domain with Q170A, A215K
modifications: extracellular domain
notes: as for B3
B11: Y242A: single-point mutated rat sRANKL (protein)
chain: B1 chain with Y83A
modifications: left off: His6, N-terminal, cleaved | SUMO, N-terminal, cleaved
notes: as for B3

Tested on: BMM cells
Assay: Osteoclastogenic assay of WT, single-point mutated sRANKL and L-RANKL
Format: cell-based, mouse
Details: 25 ng/mL; three replicates
Method: Fig. 1 Evidence for selective sRANKL inhibition binding site identification. a Proposed small molecule binding site that can be used to distinguish sRANKL from mRANKL. b he probabilities that distances of residue pairs greater than 1.8 Å in sRANKL (red) and mRANKL (blue). The data are calculated based on conformation trajectories from 100 ns MD simulations on sRANKL and mRANKL. c SDRP frequency in sRANKL and mRANKL. d, e The distance of Y236-D303 and K182-R224 in sRANKL and mRANKL after MD simulation. f, g and h Osteoclastogenesis function of single-point mutated rat sRANKL and WT sRANKL. Representative TRAP staining images from one well each, with triplicate repeats wells of BMM cells isolated from C57BL/6 mice cultured with colony-stimulating factor 1 (M-CSF (10 ng/mL) and either varying WT sRANKL or mutated sRANKL (25–200 ng/mL). The number of osteoclasts counted in the osteoclastogenesis assay with mutated sRANKL. Data were presented as group mean ± s.d., n = 3 biological replicates.
Mouse osteoclasts were cultured according to the previously reported protocols. BMMs were plated in 96-well plates at a density of 6 × 10^3 cells/well with complete medium containing 10 ng/mL M-CSF. The following day, cells were then stimulated with 100 ng/mL sRANKL in the presence or absence of compounds with different concentrations every 2 days until osteoclasts formed. In order to calculate IC50, we set 9 concentrations for each compound and untreated and non-sRANKL unstimulating group as controls, each with triplicated repeated wells. After 5 days, cells were fixed with 4% paraformaldehyde and then applied TRAP-staining to identify osteoclasts by using the TRAP-staining kit. Osteoclasts number (OC No.) in each well was counted and the percentage of inhibition ratio was calculated as follows:1 OCinhibitoryratio%=100−OCNo.treated−OCNo.unstimulating/OCNo.untreated−OCNo.unstimulating×100%
GST-sRANKL was expressed and purified following a previously reported protocol. Rat sRANKL (aa160–318) cDNA was cloned into the bacterial expression vectors pGEX-3X and pGEX-2T with purification GST tag and resultant plasmid named p3rRANKL1. Label-free sRANKL protein in this study was obtained by removing His6-sumo tag from fusion protein His6-sumo-sRANKL. The DNA sequence encoding sRNAKL was inserted downstream the His6-sumo tag of a modified pET20b (+) plasmid. Single point mutations of sRANKL (K182A, R192A, W194A, R224A, H226A, E227A, Q238A, Y242A, H254A, N255A, E270A, K283A, D301A, D303A, or D305A) were constructed by PCR amplification using primer pairs to introduce the designed mutations to pET20b-His6-sumo-sRANKL recombinant plasmid. L-RANKL (binary-RANKL) plasmid was constructed as follow: the consecutive DNA sequence sequentially encoding His6-sumo tag and two sRANKL monomers was cloned into pET20b by PCR amplification using primer pairs to introduce the following restriction enzyme sites to the coding sequences: Nde I-His6-sumo-sRANKL-Bam HI and Bam HI-sRNAKL-Xho I. Each PCR product was double digested with the appropriate restriction enzymes (Thermo) and ligated to the pET20b vector between the Nde I and Xho I sites. Gly-Ser-Gly-Ser was designed to link the two monomers. After confirmed by sequence analysis, the recombinant plasmids were transformed into Escherichia coli BL21 (DE3) cells. The transformed cells were grown in LB media till OD600 about 0.6, then 0.15 mM IPTG was added to induce protein overexpression for 16 h at 20 °C.

Molecule | osteoclast formation (fig. S4a)
B1 | 53 and 61 and 57
B2 | 4 (2×) and 8

Same assay, conditions: 50 ng/mL; three replicates

Molecule | osteoclast formation (fig. S4a)
B1 | 118 and 103 and 116
B2 | 11

Same assay, conditions: 100 ng/mL; three replicates

Molecule | osteoclast formation (fig. S4a)
B1 | 201 and 205
B2 | 15 and 19 and 17

Same assay, conditions: 200 ng/mL; three replicates

Molecule | osteoclast formation (fig. S4a)
B1 | 201 and 205
B2 | 23 and 19 and 24

Same assay, conditions: BMMs, M-CSF 10 ng/mL, sRANKL protein 25 ng/mL

Molecule | number of osteoclasts (fig. 1f)
B3 | 0
B4 | 0
B5 | 0
B1 | 53 and 61 and 57
B6 | 0
B7 | 0
B8 | 0
B9 | 0
B10 | 218 and 174 and 207

Same assay, conditions: BMMs, M-CSF 10 ng/mL, sRANKL protein 50 ng/mL

Molecule | number of osteoclasts (fig. 1f)
B3 | 0
B4 | 0
B5 | 0
B1 | 118 and 103 and 116
B6 | 0
B7 | 0
B8 | 0
B9 | 0
B10 | 153 and 140 and 132
B11 | 1 and 2

Same assay, conditions: BMMs, M-CSF 10 ng/mL, sRANKL protein 100 ng/mL

Molecule | number of osteoclasts (fig. 1f)
B3 | 0
B4 | 0
B5 | 0
B1 | 198 and 201 and 205
B6 | 0
B7 | 0
B8 | 0
B9 | 0
B10 | 166 and 142 and 153
B11 | 5 and 7

Same assay, conditions: BMMs, M-CSF 10 ng/mL, sRANKL protein 200 ng/mL

Molecule | number of osteoclasts (fig. 1f)
B3 | 0
B4 | 0
B5 | 0
B1 | 198 and 201 and 205
B6 | 0
B7 | 0
B8 | 0
B9 | 0
B10 | 155 and 163 and 151
B11 | 12 and 14 and 11

Same assay, conditions: L-RANKL vs WT sRANKL; listed as WT-RANKL

Molecule | osteoclastogenesis activity, osteoclast number (fig. S3a source data)
B1 | 341 and 355 and 358
